Data taken from paper PMC6973309.

Target: human CX3CR1 (human) (UniProt P49238)
Sequence (P49238 whole entry): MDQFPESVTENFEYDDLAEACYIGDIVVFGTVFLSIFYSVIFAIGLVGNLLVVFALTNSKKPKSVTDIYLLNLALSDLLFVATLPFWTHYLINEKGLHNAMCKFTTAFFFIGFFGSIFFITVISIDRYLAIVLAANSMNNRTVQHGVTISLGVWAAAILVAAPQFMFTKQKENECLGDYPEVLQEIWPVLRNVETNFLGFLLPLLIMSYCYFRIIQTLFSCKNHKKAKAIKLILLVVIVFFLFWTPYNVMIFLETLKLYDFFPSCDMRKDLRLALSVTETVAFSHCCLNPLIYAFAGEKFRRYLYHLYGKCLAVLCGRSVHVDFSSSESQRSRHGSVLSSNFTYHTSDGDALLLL

EC50 in the calcium flux assay: 4.8 nM
B1: mouse fractalkine (ligand)
chain: QHLGMTKCEIMCDKMTSRIPVALLIRYQLNQESCGKRAIVLETTQHRRFCADPKEKWVQDAMKHLDHQAAALTKNGGKFEKRVDNVTPGITLATRGLSPSALTKPESATLEDLALELTTISQEARGTMGTSQEPPAAVTGSSLSTSEAQDAGLTAKPQSIGSFEAADISTTVWPSPAVYQSGSSSWAEEKATESPSTTAPSPQVSTTSPSTPEENVGSEGQPPWVQGQDLSPEKSLGSEEINPVHTDNFQERGPGNTVHPSVAPISSEETPSPELVASGSQAPKIEEPIHATADPQKLSVLITPVPDTQAATRRQAVGLLAFLGLLFCLGVAMFAYQSLQGCPRKMAGEMVEGLRYVPRSCGSNSYVLVPV
